Measurements as given in IntAct's records for PubMed 25910212.

B1: EF-hand domain-containing protein 1 (Homo sapiens), Q5JVL4 (parent)
chain: MVSNPVHGLPFLPGTSFKDSTKTAFHRSQTLSYRNGYAIVRRPTVGIGGDRLQFNQLSQAELDELASKAPVLTYGQPKQAPPADFIPAHVAFDKKVLKFDAYFQEDVPMSTEEQYRIRQVNIYYYLEDDSMSVIEPVVENSGILQGKLIKRQRLAKNDRGDHYHWKDLNRGINITIYGKTFRVVDCDQFTQVFLESQGIELNPPEKMALDPYTELRKQPLRKYVTPSDFDQLKQFLTFDKQVLRFYAIWDDTDSMYGECRTYIIHYYLMDDTVEIREVHERNDGRDPFPLLMNRQRVPKVLVENAKNFPQCVLEISDQEVLEWYTAKDFIVGKSLTILGRTFFIYDCDPFTRRYYKEKFGITDLPRIDVSKREPPPVKQELPPYNGFGLVEDSAQNCFALIPKAPKKDVIKMLVNDNKVLRYLAVLESPIPEDKDRRFVFSYFLATDMISIFEPPVRNSGIIGGKYLGRTKVVKPYSTVDNPVYYGPSDFFIGAVIEVFGHRFIILDTDEYVLKYMESNAAQYSPEALASIQNHVRKREAPAPEAESKQTEKDPGVQELEALIDTIQKQLKDHSCKDNIREAFQIYDKEASGYVDRDMFFKICESLNVPVDDSLVKELIRMCSHGEGKINYYNFVRAFSN
partner: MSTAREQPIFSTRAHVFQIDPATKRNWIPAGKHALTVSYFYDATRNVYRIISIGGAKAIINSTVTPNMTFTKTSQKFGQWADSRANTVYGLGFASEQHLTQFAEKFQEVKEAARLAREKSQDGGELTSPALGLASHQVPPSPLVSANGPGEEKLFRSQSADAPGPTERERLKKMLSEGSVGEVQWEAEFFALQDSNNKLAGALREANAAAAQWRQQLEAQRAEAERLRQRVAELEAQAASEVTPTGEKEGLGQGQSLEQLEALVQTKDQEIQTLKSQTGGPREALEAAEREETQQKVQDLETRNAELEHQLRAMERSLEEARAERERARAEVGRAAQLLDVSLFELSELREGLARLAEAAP
B2: 5-aminolevulinate synthase, erythroid-specific, mitochondrial (Homo sapiens), P22557-2 (parent)
chain: MVTAAMLLQCCPVLARGPTSLLGKVVKTHQFLFGIGRCPILATQGPNCSQIHLKATKAGGDSPSWAKGHCPFMLSELQDGKSKIVQKAAPEVQEDVKAFKTGNYVFSYDQFFRDKIMEKKQDHTYRVFKTVNRWADAYPFAQHFSEASVASKDVSVWCSNDYLGMSRHPQVLQATQETLQRHGAGAGGTRNISGTSKFHVELEQELAELHQKDSALLFSSCFVANDSTLFTLAKILPGCEIYSDAGNHASMIQGIRNSGAAKFVFRHNDPDHLKKLLEKSNPKIPKIVAFETVHSMDGAICPLEELCDVSHQYGALTFVDEVHAVGLYGSRGAGIGERDGIMHKIDIISGTLGKAFGCVGGYIASTRDLVDMVRSYAAGFIFTTSLPPMVLSGALESVRLLKGEEGQALRRAHQRNVKHMRQLLMDRGLPVIPCPSHIIPIRVGNAALNSKLCDLLLSKHGIYVQAINYPTVPRGEELLRLAPSPHHSPQMMEDFVEKLLLAWTAVGLPLQDVSVAACNFCRRPVHFELMSEWERSYFGNMGPQYVTTYA
partner: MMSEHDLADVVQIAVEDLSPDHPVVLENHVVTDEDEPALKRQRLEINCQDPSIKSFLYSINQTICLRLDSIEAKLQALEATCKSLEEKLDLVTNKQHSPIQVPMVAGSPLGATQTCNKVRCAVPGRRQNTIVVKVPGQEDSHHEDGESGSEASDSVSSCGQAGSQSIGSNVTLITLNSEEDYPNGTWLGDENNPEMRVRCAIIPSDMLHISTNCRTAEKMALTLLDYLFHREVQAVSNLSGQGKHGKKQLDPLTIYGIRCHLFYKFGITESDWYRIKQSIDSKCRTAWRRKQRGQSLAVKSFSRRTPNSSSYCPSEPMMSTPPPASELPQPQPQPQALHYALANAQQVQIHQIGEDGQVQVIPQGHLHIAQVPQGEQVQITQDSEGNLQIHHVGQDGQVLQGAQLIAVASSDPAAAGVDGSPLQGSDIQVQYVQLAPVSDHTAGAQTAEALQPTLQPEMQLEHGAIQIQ

Variants of: B1
Settings: with home3_human HOMER3, Q9NSC5

Variant | effect of a mutation on the interaction
R159W | with no effect
T508R | with no effect
R221H | disrupting interaction strength

Next, values leading:

effect of a mutation on the interaction | Variant
with no effect | M448T
disrupting interaction strength | A394S
disrupting interaction strength | P77T

Variants of: B2
Settings: with BANP

effect of a mutation on the interaction | Variant
disrupting interaction strength | I439N
disrupting interaction strength | I252T
disrupting interaction strength | R411Q
